Measured values: the DeepSol protein solubility set

assay: soluble on expression in E. coli; label from the status in PepcDB or PDB records

Sequence | soluble on expression in E. coli
MTLQQEIIQALGAKPHINPEEEIRRSVDFLKAYLKTYPFLKSLVLGISGGQDSTLAGKLSQMAIAELREETGDNALQFIAVRLPYGVQADEQDCQDAIAFIQPDRVLTVNIKGAVLASEQALREAGIELSDFVRGNEKARERMKAQYSIAGMTHGVVVGTDHAAEAITGFFTKYGDGGTDINPLHRLNKRQGKQLLAALGCPEHLYKKVPTADLEDDRPSLPDEAALGVTYDNIDDYLEGKTLDPAIAKTIEGWYVKTEHKRRLPITVFDDFWKR | soluble
MGSDKIHHHHHHMLLALSTWSEIEERLKSSTSVVVPIGSNEQHGPTGLLGTDWLCPEIIAHEASKRASDKVLVAPTFNIGMAQHHLAFPGTIFLRPSTFIAAIGDWVRSLGAHGFTRIYFLNGHGGNVASIEAAFSEIYADYSFRQQRAPFALKLKNWWDLAGVNALANRQFPTGHGSHATPSEIAVTQWAYPETIKTAAYSPPIAPTGPIREALDFRARYADGRMGSDPAQATPEKGGELVSMAANALIEDLAAFAAERAPA | not soluble
MGSDKIHHHHHHMERMKAFLTDENFKHEINFDNDLLPYKIYQTTIANGYPDALFHWHPELEISYIYEGTAQYHIDYDYFNSQTDDIILVRPNGMHSIHPIKNKMQKAQTLLFHLDLVGYSLLDQISLRYLQPLQNSTFKLVPCIKPDMLGYQDIKNCLFAIFDIYQRQGRHFELLLKAKLQELIYLLYFHQYVLRKHSDDMYRKNEKIRELIDYIHQHYQEKLFIISLADIIGYSKTHFMTVFKQHTGTSCTDFIIQFRLSKACDLLVNSIKPILEVASEVGFTNLSNFNRQFKRYYQITPSQYRKQFKKTQK | not soluble
MGSDKIHHHHHHMQRIMVIGGPGSGKSTLGRKLGARLGLPVVHMDPIYWLGDWVERDKAEAMRMAKEVADGSQWVFEGNHFASMAYRAERADLIVFLDMPRVLRMWRILWRSLRYYGRTRPDMGPNCPERFNRAFLKFCWTYDREGRLRALGFVDDWRDRRRVRILTSRRQVAAFLVEIDRQ | not soluble
MSLKNNEKLIKWLFDTNAIRVCPKDKPFWYTSGTIGPYYINTHFLYGSEEKANKLLEFIDKEKENILKCPDRILEETMKNYQSDPIYRGLIDEMCDFIKNNIDVNEVDYISGGERRDWFFSPIIAKLLNKPHITIYKDLTTVVSSDGKTEELKELNGESVLHIADLITEASSYERAWIPAIKNNGGRIKWSVVVVDRKQGGAELLKSYDIKSFSMVDIDEGHHHHHH | soluble
HLEGLGASVLDFTGFAQKFGTVLSYIRLGAKPDTLHQVRIDTGGADAVIGCDMVVSSAPKASAHYRNGTKVVLNRAEMPTGDLVLHRDAQLKIDTREAAIRAVVGTENVSGFDANQTAEQLLGDAVFANVMMLGYAWQQGLVPVSRSALAQAILLNGVAVEKNRLAFAAGRALAADPARLDVESASPE | not soluble
MIIDIHGHYTTAPKALEDWRNRQIAGIKDPSVMPKVSELKISDDELQASIIENQLKKMQERGSDLTVFSPRASFMAHHIGDFNVSSTWAAICNELCYRVSQLFPDNFIGAAMLPQSPGVDPKTCIPELEKCVKEYGFVAINLNPDPSGGHWTSPPLTDRIWYPIYEKMVELEIPAMIHVSTSCNTCFHTTGAHYLNADTTAFMQCVAGDLFKDFPELKFVIPHGGGAVPYHWGRFRGLAQEMKKPLLEDHVLNNIFFDTCVYHQPGIDLLNTVIPVDNVLFASEMIGAVRGIDPRTGFYYDDTKRYIEASTILTPEEKQQIYEGNARRVYPRLDAALKAKGKAAALEHHHHHH | not soluble
MRLSDAEILHELRHTPLKELGERAYEVKKRLHPKRITTFVVDRNINYTNICWVDCKFCAFKRKLSQEETYILSFEEIDRKIEELIAIGGTQILFQGGVHPELKIEWYENLVSHIAQKFPEITIHGFSAIEVDYIARLSKLSLKETLQRLQAAGLSSIPGAGAEILSDRVRDIIAPKKLSADRWIEVHRTAHQIGMKSTATMMFGTIEEEEDIIEHWRRIRELQEETGGFRAFILWSFQPHHTPLKAEFPHLQKSSSNRYLRLLAASRLYLDNFPNLQSSWVTQGSYIGQMALLFGANDLGSTMMEENVVSAAGARNQMNQEEMIALIKDVGELPAKRNTAYEILERY | not soluble
MSLKILITGSNGLLGQKLVSLLYLKPEITLIATARGANRDEIYEDYIYESMDITSEENVLKVFRKHKPDAVIHTAAMTHVDQCELNKEACVDQNITSVKHIVKACKEVGAFLLHVSTDFIFDGTRGPLTEEEIPNPVNYYGWTKWEAEKAVENSGLKWAIARTVLVFGVVQDMSRSNIVLWVKNNLEQKKEINVVNDQWRTPTLAEDLAMGCWLIVKNQAEGIFNISGEEMLSPYELAHKVADVWKLDKGLIKQADSSTFTQPALRPPKTGFIIDKAKKQLGYKPHTLEEGLDLLKEQLTEGHHHHHH | soluble
SGLIGEGLKDVKSAAGDTRVDNFADRLAALSQAAQPARAVAAPASAPLMNQPLAMHQSGWTEGIVDRVMYLSSQNLKTADIKLEPAELGRLDIRINMAPEQQTQVTFMSAHMGVRDALESQMSKLRESFVQQGLGNVDVNVSDQS | not soluble
MSLKNARLHVINPDEVATSVLFRLLAPTGIESRHYPCAEDFLNQYQANGPACLLVDMLLPDWGPLRLLGELKRRQIHHPCIFMSYRCEEQTLMELLEQQAFAFIKKPLNQVKLTELIQVAMGQDQKEGHHHHHH | not soluble
MALTLAKNQTISLEKTAGTGLKKVSMGLGWDPEKASGFFGKLLGGGGGDIDLDASCIMLDADKKPLDLVWFRQLQSRDGAILHSGDNRTGEGAGDDETISVDLEKLPATVKYLVFTVNSFTGQNFEKVANAYCRIVDLGTRNELGRFDLSEKGQHTGVVMSYLSRTPSGWDFTAVGQATNGRTADDLVELAIGAVRA | not soluble
EQVVARKKLEESESRFRALVNASSDVVYRMNADWTVMRELEGRDFLTPAGTAMADWVETYTYREDRALVKATAAAAIEGKRIFELEHRVLKADGTIGWTFSRAIPILDEQGNIIEWFGSAADIT | not soluble
MTNSEPRRMTCDSEVVWKKLQDGLDVAYRRENMAPKDYMTLYTSVYDYCTSITLSTSRRDGEDGRAESSTPARTAGADFVGHEMYQRVEEYVKAYVIAVCEKGAELSGEDLLKYYTTEWENFRISSKVMDGIFAYLNRHWIRRELDEGHENIYMVYTLALVVWKRNLFNDLKDKVIDAMLELIRSERTGSMINSRYISGVVECLVELGVDDSETDAKKDAETKKLAVYKEFFEVKFLEATRGFYTQEAANFLSNGGNVTDYMIKVETRLNQEDDRCQLYLNSSTKTPLATCCESVLISNQLDFLQRHFGGLLVDKRDDDLSRMFKLCDRVPNGLDELRKSLENHIAKEGHQALERVAMEAATDAKLYVKTLLEVHERYQSLVNRSFKNEPGFMQSLDKAATSFINNNAVTKRAPPQAQLTKSAELLARYCDQLLRKSSKMPDEAELEELQTKIMVVFKYIDDKDVFSKFYTKMFSKRLISELSASDEAEANFITKLKSMCGYEYTARLSKMVNDTQVSKDLTADFKEKKADMLGQKSVEFNVLVLSSGSWPTFPTTPITLPQQLSKTIEIFGQFYNEKFNGRRLTWVYSQSRGEITSTAFPKKYVFTATTAQMCTMLLFNEQDSYTVEQIAAATKMDEKSAPAIVGSLIKNLVLKADTELQKEDEVPMTATVSLNKAYMNKKVRVDLSKFTMKQDAVRDTENVQKNVEEDRKSVISACIVRIMKTRKRVQHQQLMTEVITQLSGRFKPKVEMIKRCIGSLIEKEYMLRTEGQKDLYEYLA | not soluble
GHMGLEPYEISTLFEQRQAMLQSIKEGVVAVDDRGEVTLINDAAQELLNYRKSQDDEKLSTLSHSWSQVVDVSEVLRDGTPRRDEEITIKDRLLLINTVPVRSNGVIIGAISTFRDKT | soluble
ASTTTPTLRLNWLQPPFNNQKVRQALLHAVSQRDYMDAQVGDPKAYRVCWAMFGCDSPLASTAGVVSQDDEADLNAAKALLKESGYKNEKAVVLHATDYPPTSAIAPFTAQILRSIGMKAEVQSMDWATFLTRRGKQDPVEKGGWSVAYGSWNTLDLMSPIANLNLDGRGKEGYAGWTESAEMESLRTQYAQATEPASRQQIAAKIQQLAYDQVFYIPLGTY | not soluble
